Tests used:
[1] = target: T1, murine ITGA11 expressed in CHO cells (murine, UniProt P61622 23-1188); experiment: flow cytometry, 34 nM antibody on CHO cells expressing murine ITGA11
T1 construct: whole, on cells; Only the alpha chain is named for these cells; also called mouse ITGA11; CHO cells expressing murine ITGA11
T1 sequence (looked up): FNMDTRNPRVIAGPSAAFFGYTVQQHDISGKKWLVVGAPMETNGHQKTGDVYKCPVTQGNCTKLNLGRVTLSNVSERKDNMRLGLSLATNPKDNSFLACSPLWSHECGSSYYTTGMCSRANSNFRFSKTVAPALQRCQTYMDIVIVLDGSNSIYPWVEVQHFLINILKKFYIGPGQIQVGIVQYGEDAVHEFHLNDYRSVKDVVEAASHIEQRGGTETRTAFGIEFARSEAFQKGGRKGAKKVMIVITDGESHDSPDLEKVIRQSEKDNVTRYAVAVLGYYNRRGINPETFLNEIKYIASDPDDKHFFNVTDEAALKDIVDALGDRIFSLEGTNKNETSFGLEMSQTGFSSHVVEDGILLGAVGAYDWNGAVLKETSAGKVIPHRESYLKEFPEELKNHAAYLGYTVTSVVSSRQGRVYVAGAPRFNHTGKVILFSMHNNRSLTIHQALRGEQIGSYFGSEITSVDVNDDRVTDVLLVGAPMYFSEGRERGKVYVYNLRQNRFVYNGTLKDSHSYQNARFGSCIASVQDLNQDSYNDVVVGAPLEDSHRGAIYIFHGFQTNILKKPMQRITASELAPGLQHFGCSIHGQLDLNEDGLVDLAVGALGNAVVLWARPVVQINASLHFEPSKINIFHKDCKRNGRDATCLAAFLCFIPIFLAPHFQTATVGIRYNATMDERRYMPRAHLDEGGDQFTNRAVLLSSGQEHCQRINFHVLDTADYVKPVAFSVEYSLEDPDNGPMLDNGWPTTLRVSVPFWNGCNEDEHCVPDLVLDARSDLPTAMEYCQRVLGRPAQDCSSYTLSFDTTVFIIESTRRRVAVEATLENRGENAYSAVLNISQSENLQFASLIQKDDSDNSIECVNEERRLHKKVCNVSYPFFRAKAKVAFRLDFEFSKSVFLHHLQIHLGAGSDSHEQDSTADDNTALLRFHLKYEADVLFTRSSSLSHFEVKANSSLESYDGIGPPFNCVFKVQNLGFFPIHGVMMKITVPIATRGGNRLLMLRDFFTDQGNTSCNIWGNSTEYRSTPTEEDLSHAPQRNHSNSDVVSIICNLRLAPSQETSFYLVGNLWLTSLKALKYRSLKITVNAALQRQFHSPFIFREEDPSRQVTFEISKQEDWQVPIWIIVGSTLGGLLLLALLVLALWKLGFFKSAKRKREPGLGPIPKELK
Procedure: (§1) Antibody binding to C2C12 cells expressing human ITGA11 or CHO cells expressing murine ITGA11 was performed by incubating the cells with the antibodies at a concentration of 34 nM for 1 hour at 4° C. in binding medium (PBS, 10% normal goat serum, 2% rabbit serum, and 1% BSA). Cells were washed in binding medium and binding was detected using goat-anti-human Fc BV421 (Jackson ImmunoLabs). After washing the cells were resuspended in binding medium and binding was assessed by flow cytometry. 226 antibodies were screened and the binding characteristics of 10 antibodies are presented below. The results are provided in Table 2 and are expressed as mean fluorescence intensity (MFI).

[2] = target: T2, human ITGA11 expressed in mouse C2C12 cells (human, UniProt Q9UKX5 23-1188); experiment: flow cytometry, 34 nM antibody on C2C12 cells expressing human ITGA11
T2 construct: whole, on cells; also called integrin α11; C2C12 cells expressing human ITGA11
T2 sequence (looked up): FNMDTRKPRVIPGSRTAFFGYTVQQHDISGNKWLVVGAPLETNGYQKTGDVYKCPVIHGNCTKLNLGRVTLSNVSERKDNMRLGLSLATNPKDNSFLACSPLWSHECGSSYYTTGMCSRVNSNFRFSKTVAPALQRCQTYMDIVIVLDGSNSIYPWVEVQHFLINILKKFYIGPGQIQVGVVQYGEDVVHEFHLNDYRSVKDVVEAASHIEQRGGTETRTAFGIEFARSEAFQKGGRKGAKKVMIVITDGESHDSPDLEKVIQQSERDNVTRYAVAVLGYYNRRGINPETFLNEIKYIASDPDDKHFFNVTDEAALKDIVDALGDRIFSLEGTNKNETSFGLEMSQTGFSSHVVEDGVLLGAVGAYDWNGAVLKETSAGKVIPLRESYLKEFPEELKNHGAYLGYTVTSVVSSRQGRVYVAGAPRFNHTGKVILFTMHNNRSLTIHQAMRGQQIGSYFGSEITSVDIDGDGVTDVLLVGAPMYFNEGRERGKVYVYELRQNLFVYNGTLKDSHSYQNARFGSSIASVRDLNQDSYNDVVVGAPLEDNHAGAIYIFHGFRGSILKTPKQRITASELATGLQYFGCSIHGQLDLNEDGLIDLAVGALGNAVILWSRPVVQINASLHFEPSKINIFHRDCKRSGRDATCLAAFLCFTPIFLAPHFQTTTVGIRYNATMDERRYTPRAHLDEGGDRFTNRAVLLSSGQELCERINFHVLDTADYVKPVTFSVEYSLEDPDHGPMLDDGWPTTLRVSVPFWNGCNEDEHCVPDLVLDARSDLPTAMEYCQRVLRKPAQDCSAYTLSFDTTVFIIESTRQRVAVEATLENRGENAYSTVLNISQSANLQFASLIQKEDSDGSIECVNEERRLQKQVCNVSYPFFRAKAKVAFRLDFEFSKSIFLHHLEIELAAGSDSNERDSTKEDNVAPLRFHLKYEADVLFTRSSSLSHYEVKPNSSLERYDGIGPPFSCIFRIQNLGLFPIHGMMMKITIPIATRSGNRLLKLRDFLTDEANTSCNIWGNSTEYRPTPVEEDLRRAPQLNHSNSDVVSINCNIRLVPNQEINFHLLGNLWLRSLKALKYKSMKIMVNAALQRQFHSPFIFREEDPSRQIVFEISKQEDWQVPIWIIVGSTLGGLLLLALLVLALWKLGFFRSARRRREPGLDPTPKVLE
Procedure: as §1

B1: mAb FIB-918-4 (antibody, human IgG4, V domains shown)
VH: QVQLVQSGAEVKKPGATVKISCKVSGYTFTDYYMHWVRQAPGKGLEWMGGFDPEDGETIYAQKFQGRVTMTEDTSTDTAYMELSSLRSEDTAVYYCATLDYRGVVYFDYWGQGTLVTVSS
VL: NFMLTQPHSVSDSPGKTVTISCTGSSGSIASNYVQWYQQRPGSAPTTVIYEDKRRPSGVPDRFIGSIDSSSNSASLTISGLRTEDEADYYCQSYDSSNHWVFGGGTQLTVLG
B1 was tested, and the MFI [1] was 4570 MFI and the MFI [2] was 15700 MFI.

B2: mAb FIB-918-9 (antibody, V domains shown)
VH: EVQLVESGGGLVQPGGSLRLSCLASGFTFSDYWMAWVRQAPGKGLEWVSAISGSGGSTYYADSVKGRFTISRDNSKNTLYLQMNSLRAEDTAVYYCAKDLLWAARDAFDIWGQGTLVTVSS
VL: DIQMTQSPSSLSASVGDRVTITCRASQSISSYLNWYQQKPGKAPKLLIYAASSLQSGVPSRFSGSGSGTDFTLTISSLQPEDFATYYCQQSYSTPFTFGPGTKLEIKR
B2 gave an MFI [1] of 2030 MFI and an MFI [2] of 1450 MFI.

B3: mAb FIB-918-10 (antibody, human IgG4, V domains shown)
VH: not shown
VL: AIQLTQSPSTLSASVGDRVTITCRASQGINDFLAWYQQKPGKAPKLLIYAASSLQSGVPSRFSGSGSGTDFTLTISSLQPEDFATYYCQQSYSTPLTFGGGTKVEIKR
In the case of B3, the MFI [1] is reported as 8570 MFI and the MFI [2] is reported as 10600 MFI.

B4: mAb FIB-918-8 (antibody, V domains shown)
VH: EVQLVESGGGVVRPGGPLRLSCAASGFTFSNAWMSWVRQAPGKGLEWVSAISGSGGSTYYADSVKGRFTISRDNSKNTLYLQMNSLRAEDTAIYYCAKQTVTSADDYFDYWGQGTLVTVSS
VL: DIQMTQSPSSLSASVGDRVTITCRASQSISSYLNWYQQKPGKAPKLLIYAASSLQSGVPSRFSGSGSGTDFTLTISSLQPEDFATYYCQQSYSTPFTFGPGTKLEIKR
With B4 the MFI [1] was 32900 MFI and the MFI [2] was 41500 MFI.

B5: mAb FIB-918-7 (antibody, human IgG4, V domains shown)
VH: EVQLVESGGGLVQPGGSLRLSCAASGFMFDTHAMSWVRQAPGKGLEWVSSISGSGGSIYYADSVKGRFTISRDNSKNTLYLQMNSLRAEDTAVYYCARSGETAGTDYFDYWGQGTLVTVSS
VL: EIVMTQSPATLSLSPGERATLSCRASQSVSSSYLSWYQQKPGQAPRLLIYGASTRATGIPARFSGSGSGTDFTLTISSLQPEDFAVYYCQQDYNSPYTFGQGTKVDIKR
B5 was tested, and the MFI [1] was 21300 MFI and the MFI [2] was 7870 MFI.

B6: mAb FIB-918-6 (antibody, V domains shown)
VH: EVQLLESGGDLVKAGGSLRLSCAASGFTFSNAWMSWVRQAPGKGLEWVSGISGSGGSTYYADSVKGRFTISRDNSKNTLYLQMNSLRAEDTAVYYCARDRGYSYSETSNDAFDIWGRGTLVTVSS
VL: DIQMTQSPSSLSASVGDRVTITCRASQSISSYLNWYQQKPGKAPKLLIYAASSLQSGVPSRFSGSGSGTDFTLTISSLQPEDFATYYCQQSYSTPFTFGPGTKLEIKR
B6 showed an MFI [1] of 9410 MFI and an MFI [2] of 7880 MFI.

B7: mAb FIB-918-3 (antibody, human IgG4, V domains shown)
VH: EVQLVESGGGLVQPGGSLRLSCAASGFTFSSYSMNWVRQAPGKGLEWVSYISSSSSTIYYADSVKGRFTISRDNAKNSLYLQMNSLRAEDTAVYYCARGPDLSDYFDYWGRGTLVTVSS
VL: not shown
With B7 the MFI [1] was 1520 MFI and the MFI [2] was 5220 MFI.

B8: mAb FIB-918-2 (antibody, human IgG4, V domains shown)
VH: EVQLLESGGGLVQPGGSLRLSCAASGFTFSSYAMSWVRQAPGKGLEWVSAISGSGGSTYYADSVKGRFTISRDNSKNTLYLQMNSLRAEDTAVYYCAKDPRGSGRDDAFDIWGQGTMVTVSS
VL: NIQMTQSPSSLSASVGDRVTITCRASQTIGSYLNWYQQKPGTAPKLLIYGASTSHTWVPSRFTGGGSGTEFTLTISSLQSEDFATYYCQQSYSTPFTFGGGTKLEIKR
Binder B8 has an MFI [1] of 12600 MFI and an MFI [2] of 30400 MFI.

From patent publication US20260159591A1 (FIBROCOR THERAPEUTICS, published 2026)
